Target: T1, His-tagged HMGB1 (UniProt P09429)
T1 sequence: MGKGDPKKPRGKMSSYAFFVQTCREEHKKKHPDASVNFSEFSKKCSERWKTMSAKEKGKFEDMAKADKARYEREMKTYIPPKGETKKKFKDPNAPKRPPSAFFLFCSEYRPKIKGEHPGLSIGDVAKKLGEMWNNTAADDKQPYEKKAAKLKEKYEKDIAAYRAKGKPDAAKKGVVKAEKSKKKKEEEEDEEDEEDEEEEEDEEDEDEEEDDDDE
Assay: SPR
Conditions: comparative pool; no signal increase in FIG. 1; unit M inferred

Sequence: GGGACGCUCACGUACGCUCANNNNNNNNNNNNNNNNNNNNNNNNNNNNNNNNNNNNNNNNUCAGUGCCUGGACGUGCAGU [40N random RNA pool]
- Kd: 1.04 µM

Reference: US20120208867
